B1: mouse mGluR6 (metabotropic glutamate receptor 6), wild type, complex N-glycosylated form (upper dimer band, band C) [modified: complex N-glycosylation (Endo H-resistant, PNGase F-sensitive); N-glycosylation sites N290, N445 … (parent)
chain 1: AGSVRLAGGLTLGGLFPVHARGAAGRACGTLKKEQGVHRLEAMLYALDRINADPELLPGVRLGARLLDTCSRDTYALEQALSFVQALIRGRGDGEEASVRCPGGVPPLRAAPPERVVAVVGASASSVSIMVANVLRLFAIPQISYASTAPELSDSTRYDFFSRVVPPDSYQAQAMVDIVRALGWNYVSTLASEGNYGESGVEAFVQISREAGGVCIAQSIKIPREPKPGEFHKVIRRLMETPNARGIIIFANEDDIRRVLEATRQANLTGHFLWVGSDSWGSKISPILNLEEEAVGAITILPKRASIDGFDQYFMTRSLENNRRNIWFAEFWEENFNCKLTSSGGQSDDSTRKCTGEERIGQDSTYEQEGKVQFVIDAVYAIAHALHSMHQALCPGHTGLCPAMEPTDGRTLLHYIRAVRFNGSAGTPVMFNENGDAPGRYDIFQYQATNGSASSGGYQAVGQWAEALRLDMEALQWSGDPHEVPPSQCSLPCGPGERKKMVKGVPCCWHCEACDGYRFQVDEFTCEACPGHMRPTPNHTGCRPTPVVRLTWSSPWAALPLLLAVLGIMATTTIIATFMRHNDTPIVRASGRELSYVLLTGIFLIYAITFLMVAEPCAAVCASRRLLLGLGTTLSYSALLTKTNRIYRIFEQGKRSVTPPPFISPTSQLVITFGLTSLQVVGVIAWLGAQPPHSVIDYEEQRTVDPEQARGVLKCDMSDLSLIGCLGYSLLLMVTCTVYAIKARGVPETFNEAKPIGFTMYTTCIIWLAFVPIFFGTAQSAEKIYIQTTTLTVSLSLSASVSLGMLYVPKTYVILFHPEQNVQKRKRSLKKTSTMAAPPKSENSEDAK
chain 2: QGDCWLIEGDKGFVWLAICSQNQPPYEAIPQQINNTIVDLRLNENRIRSVQYASLSRFGNLTYLNLTKNEIGYIEDGAFSGQFNLQVLQLGYNRLRNLTEGMLRGLSKLEYLYLQANLIEVVMASAFWECPNIVNIDLSMNRIQQLGSGTFAGLTKLSVCEIYSNPFYCSCELLGFLRWLAAFTNATQTHDRVQCESPPVYAGYFLLGQGRHGHQRSILSKLQSVCTEGSYTAEVLGPPRPVPGRSQPGHSPPPPPPEPSDMPCADDECFSGDGTTPLVILTTLVPQTEARPSMKVKQLTQNSATIMVQLPSPFNRMYTLEQYNNSKSFTVSKLTQPQEEIRLTNLYTLTNYTYCVVSTSSGTHHNHTCLTICLPKPPSPPGPVPSPSTATHY
B2: mouse mGluR6 (metabotropic glutamate receptor 6), wild type, complex N-glycosylated form (upper dimer band, band C) [modified: complex N-glycosylation (Endo H-resistant, PNGase F-sensitive); N-glycosylation sites N290, N445 … (parent)
chain 1: B1 chain 1
chain 2: DCWLIEGDKGYVWLAICSQNQPPYETIPQHINSTVHDLRLNENKLKAVLYSSLNRFGNLTDLNLTKNEISYIEDGAFLGQTSLQVLQLGYNRLSNLTEGMLRGMSRLQFLFVQHNLIEVVTPTAFSECPSLISIDLSSNRLSRLDGATFASLASLMVCELAGNPFNCECDLFGFLAWLVVFNNVTKNYDRLQCESPREFAGYPLLVPRPYHSLNAITVLQAKCRNGSMPARPVSHPTPYSTDAQREPDENSGFNPDEILSVEPPASSTTDASAGPAIKLHQVTFTSATLVVIIPHPYSKMYVLVQYNNSYFSDVMTLKNKKEIVTLDKLRAHTEYTFCVTSLRNSRRFNHTCLTFTTRDLVPGDLAPSTSTTTHY

Variants of: B1
Test: pull-down
Conditions: with ELFN1 extracellular domain fused to human Fc [mouse]; parent: 1; read off a plot

Variant | ratio to parent
chain 1 N422Q | 0.05
chain 1 N267Q | 0.59

More lines, now with the values ahead:

ratio to parent | Variant
0.13 | chain 1 N538Q
0.6 | chain 1 N450Q

Same assay, conditions: with ELFN1 extracellular domain fused to human Fc [mouse]; five times more transfected cells were used for 4Q; parent: 1; read off a plot

ratio to parent | Variant
0.04 | chain 1 N267Q N422Q N450Q N538Q

Variants of: B2
Test: pull-down
Conditions: with ELFN2 extracellular domain fused to human Fc [mouse]; parent: 1; read off a plot

ratio to parent | Variant
0.04 | chain 1 N422Q
0.32 | chain 1 N450Q
0.52 | chain 1 N267Q
0.32 | chain 1 N538Q
